Reference: patent US20190240295A1

Key:
[1] = molecular target: Plasma-derived VWF (pdVWF, Diagnostica Stago) (UniProt P04275); assay: SPR (Biacore), pdVWF immobilized on CM5 chip; mean KD of lots G-I
[2] = molecular target: Plasma-derived VWF (pdVWF, Diagnostica Stago) (UniProt P04275); assay: SPR (Biacore), pdVWF immobilized on CM5 chip; mean KD of lots D-F
[3] = molecular target: LRP1 (alpha2-macroglobulin receptor/CD91) receptor (BioMac) (UniProt Q07954); assay: SPR (Biacore), LRP1 immobilized on CM4 chip; mean KD of lots D-F
[4] = molecular target: LRP1 (alpha2-macroglobulin receptor/CD91) receptor (BioMac) (UniProt Q07954); assay: SPR (Biacore), LRP1 immobilized on CM4 chip; mean KD of lots A-C
[5] = molecular target: Plasma-derived VWF (pdVWF, Diagnostica Stago) (UniProt P04275); assay: SPR (Biacore), pdVWF immobilized on CM5 chip; mean KD of lots A-C
[6] = molecular target: Plasma-derived VWF (pdVWF, Diagnostica Stago) (UniProt P04275); assay: SPR (Biacore), pdVWF immobilized on CM5 chip; mean KD of lots K-N
[7] = molecular target: LRP1 (alpha2-macroglobulin receptor/CD91) receptor (BioMac) (UniProt Q07954); assay: SPR (Biacore), LRP1 immobilized on CM4 chip; mean KD of lots K-N

UniProt Q07954, sequence (Q07954 20-4544 limits assumed): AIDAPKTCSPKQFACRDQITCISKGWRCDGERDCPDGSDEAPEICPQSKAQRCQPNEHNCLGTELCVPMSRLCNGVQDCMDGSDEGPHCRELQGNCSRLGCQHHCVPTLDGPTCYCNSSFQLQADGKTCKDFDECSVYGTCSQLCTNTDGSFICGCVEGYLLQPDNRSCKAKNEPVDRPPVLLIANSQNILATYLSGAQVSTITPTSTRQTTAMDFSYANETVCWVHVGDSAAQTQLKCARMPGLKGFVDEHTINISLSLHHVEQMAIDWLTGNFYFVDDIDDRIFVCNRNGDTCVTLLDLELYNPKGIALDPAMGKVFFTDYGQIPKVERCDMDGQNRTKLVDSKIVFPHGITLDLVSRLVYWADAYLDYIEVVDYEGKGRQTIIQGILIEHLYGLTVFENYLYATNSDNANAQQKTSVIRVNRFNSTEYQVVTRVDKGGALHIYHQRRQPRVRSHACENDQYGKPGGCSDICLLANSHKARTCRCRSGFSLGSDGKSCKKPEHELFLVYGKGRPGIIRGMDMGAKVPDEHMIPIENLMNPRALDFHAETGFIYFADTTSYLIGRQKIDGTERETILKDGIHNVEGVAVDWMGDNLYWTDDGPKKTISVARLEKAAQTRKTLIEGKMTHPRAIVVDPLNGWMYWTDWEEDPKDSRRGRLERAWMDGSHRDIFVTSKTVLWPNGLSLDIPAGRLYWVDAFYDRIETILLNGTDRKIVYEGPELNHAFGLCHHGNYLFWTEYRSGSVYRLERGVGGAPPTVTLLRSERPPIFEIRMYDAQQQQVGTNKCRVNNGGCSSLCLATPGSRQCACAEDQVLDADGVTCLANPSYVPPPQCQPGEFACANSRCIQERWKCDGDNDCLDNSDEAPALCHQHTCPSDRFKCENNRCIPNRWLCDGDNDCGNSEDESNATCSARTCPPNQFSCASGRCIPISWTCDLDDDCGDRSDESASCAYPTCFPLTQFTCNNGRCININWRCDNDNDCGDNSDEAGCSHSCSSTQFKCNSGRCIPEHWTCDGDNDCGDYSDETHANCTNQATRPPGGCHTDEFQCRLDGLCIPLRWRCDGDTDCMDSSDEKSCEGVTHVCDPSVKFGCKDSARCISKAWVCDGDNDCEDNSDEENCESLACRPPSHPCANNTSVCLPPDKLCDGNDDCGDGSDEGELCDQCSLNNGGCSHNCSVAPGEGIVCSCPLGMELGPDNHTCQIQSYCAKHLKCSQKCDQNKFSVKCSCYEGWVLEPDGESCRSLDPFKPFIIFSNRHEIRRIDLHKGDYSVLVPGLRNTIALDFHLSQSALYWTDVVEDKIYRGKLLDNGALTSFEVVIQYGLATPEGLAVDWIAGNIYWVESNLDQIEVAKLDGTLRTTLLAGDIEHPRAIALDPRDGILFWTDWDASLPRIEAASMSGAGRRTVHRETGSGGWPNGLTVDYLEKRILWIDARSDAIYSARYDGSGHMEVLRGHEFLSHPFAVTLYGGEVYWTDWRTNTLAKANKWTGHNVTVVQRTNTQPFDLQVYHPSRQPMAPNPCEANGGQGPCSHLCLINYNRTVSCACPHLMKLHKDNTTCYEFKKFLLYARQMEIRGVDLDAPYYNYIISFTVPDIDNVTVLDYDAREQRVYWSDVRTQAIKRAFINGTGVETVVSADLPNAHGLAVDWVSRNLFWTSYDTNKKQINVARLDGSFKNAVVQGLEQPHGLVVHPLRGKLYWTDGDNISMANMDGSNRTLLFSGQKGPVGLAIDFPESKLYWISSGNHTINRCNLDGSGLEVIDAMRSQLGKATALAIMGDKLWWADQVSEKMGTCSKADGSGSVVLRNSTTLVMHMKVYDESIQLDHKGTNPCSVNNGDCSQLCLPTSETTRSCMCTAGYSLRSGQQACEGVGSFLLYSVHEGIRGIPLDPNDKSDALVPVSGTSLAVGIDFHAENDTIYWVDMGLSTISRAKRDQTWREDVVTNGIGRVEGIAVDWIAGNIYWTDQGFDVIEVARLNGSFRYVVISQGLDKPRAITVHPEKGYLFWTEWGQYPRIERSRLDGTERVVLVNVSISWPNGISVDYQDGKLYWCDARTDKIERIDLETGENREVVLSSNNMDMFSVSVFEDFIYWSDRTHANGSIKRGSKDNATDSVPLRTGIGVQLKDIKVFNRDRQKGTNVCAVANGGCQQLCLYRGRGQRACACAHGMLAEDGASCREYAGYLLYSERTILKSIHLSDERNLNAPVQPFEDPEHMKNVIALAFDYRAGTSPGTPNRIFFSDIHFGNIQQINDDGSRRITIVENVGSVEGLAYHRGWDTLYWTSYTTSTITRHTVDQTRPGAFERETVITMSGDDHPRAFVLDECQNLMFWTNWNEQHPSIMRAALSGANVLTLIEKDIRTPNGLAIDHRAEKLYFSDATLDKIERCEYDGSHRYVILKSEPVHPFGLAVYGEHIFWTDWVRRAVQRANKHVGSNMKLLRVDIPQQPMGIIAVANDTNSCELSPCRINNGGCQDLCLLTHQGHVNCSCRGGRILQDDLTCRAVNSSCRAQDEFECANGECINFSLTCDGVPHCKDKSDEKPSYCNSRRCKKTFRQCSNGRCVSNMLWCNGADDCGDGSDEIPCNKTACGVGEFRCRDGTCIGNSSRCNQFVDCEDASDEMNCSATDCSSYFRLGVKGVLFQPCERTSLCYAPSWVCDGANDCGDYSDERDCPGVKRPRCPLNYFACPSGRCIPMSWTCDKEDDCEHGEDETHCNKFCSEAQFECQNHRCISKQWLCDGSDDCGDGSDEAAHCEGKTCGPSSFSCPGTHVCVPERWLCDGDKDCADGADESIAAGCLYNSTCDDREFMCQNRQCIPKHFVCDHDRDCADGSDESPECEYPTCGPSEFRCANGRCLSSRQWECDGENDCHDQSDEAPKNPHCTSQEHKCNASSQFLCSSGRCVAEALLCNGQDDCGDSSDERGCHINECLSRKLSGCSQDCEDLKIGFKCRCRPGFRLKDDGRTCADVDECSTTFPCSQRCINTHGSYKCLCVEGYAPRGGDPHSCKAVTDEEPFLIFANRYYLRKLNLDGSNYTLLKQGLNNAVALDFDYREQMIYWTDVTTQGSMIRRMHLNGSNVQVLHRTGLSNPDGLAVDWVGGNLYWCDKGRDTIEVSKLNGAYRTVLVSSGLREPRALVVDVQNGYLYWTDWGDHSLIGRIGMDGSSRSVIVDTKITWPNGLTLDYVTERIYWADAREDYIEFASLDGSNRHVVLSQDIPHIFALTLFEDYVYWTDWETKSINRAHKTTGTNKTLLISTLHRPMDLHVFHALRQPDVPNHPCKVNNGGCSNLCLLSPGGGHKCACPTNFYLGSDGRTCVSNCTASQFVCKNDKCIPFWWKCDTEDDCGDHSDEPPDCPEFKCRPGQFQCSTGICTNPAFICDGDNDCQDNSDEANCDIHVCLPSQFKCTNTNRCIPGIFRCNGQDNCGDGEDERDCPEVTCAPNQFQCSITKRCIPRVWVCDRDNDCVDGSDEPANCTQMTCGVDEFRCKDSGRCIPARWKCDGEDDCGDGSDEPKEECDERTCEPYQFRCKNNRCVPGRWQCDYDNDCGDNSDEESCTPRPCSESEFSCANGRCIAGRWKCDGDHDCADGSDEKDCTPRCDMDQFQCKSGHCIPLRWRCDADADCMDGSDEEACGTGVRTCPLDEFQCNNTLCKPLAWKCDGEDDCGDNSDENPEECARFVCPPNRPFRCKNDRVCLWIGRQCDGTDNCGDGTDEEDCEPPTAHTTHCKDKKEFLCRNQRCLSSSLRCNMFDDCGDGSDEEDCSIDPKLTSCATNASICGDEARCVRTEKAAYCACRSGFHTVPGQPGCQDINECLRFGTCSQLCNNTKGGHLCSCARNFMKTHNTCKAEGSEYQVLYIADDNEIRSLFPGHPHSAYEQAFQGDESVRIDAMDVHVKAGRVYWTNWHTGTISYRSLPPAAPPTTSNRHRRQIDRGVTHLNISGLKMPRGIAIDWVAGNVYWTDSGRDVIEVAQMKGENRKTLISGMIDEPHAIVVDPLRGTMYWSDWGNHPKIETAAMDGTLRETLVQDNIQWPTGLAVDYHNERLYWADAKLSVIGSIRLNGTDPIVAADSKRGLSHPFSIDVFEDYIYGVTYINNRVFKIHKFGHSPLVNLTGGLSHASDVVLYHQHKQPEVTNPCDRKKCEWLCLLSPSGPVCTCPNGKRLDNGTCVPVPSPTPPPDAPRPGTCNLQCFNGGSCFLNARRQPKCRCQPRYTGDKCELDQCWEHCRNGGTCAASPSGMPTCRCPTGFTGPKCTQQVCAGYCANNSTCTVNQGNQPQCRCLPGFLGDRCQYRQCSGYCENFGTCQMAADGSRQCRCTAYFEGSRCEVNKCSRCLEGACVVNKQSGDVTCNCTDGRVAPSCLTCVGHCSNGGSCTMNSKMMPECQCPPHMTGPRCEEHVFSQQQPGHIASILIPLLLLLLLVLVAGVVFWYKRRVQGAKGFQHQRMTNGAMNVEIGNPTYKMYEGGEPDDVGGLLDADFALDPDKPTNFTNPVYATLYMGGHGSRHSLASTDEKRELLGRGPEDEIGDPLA

Row | Kd [1] [nM] | Kd [2] [nM] | Kd [3] [nM] | Kd [4] [nM] | Kd [5] [nM] | Kd [6] [nM] | Kd [7] [nM] | Substance
1 | 0.31 | 0.28 | 32 | 19 | 0.28 |  |  | PSA-rFVIII (polysialylated recombinant Factor VIII) (from UniProt P00451 20-2351)
2 |  |  |  |  |  | 0.32 | 22.3 | rebuffered rFVIII (unmodified recombinant Factor VIII) (from UniProt P00451 20-2351)
